Measurements from patent publication US20260193335A1 (ZOETIS SERVICES, published 2026).
Numbering of substitutions follows the chain as printed. Names and notes keep the numbering of the source.

B1: mAb3 (felinized anti-NGF antibody ZTS-768) S428A, feline IgG1a (antibody)
heavy: DVQLVESGGDLVKPGGSLRLTCVASGFTYSNYWMHWVRQAPGKGLQWVARIDPYGGGTKHNEKFKRRFTISRDNAKNTLYLQMNSLKTEDTATYYCVRSGYDYYFDVWGQGTLVTVSSASTTAPSVFPLAPSCGTTSGATVALACLVLGYFPEPVTVSWNSGALTSGVHTFPAVLQASGLYSLSSMVTVPSSRWLSDTFTCNVAHPPSNTKVDKTVRKTDHPPGPKPCDCPKCPPPEMLGGPSIFIFPPKPKDTLSISRTPEVTCLVVDLGPDDSDVQITWFVDNTQVYTAKTSPREEQFNSTYRVVSVLPILHQDWLKGKEFKCKVNSKSLPSPIERTISKAKGQPHEPQVYVLPPAQEELSRNKVSVTCLIKSFHPPDIAVEWEITGQPEPENNYRTTPPQLDSDGTYFVYSKLSVDRSHWQRGNTYTCSVAHEALHSHHTQKSLTQSPGK
light: EIQMTQSPSSLSASPGDRVTITCRASENIYSFLAWYQQKPGKVPKLLIYNANTLAEGVPSRFSGSGSGTDFTLTISSLEPEDAATYYCQHHFGTPFTFGSGTKLEIKRSDAQPSVFLFQPSLDELHTGSASIVCILNDFYPKEVNVKWKVDGVVQNKGIQESTTEQNSKDSTYSLSSTLTMSSTEYQSHEKFSCEVTHKSLASTLVKSFQRSECQRE
notes: also called mAb3 ID No. 89
B2: mAb3 (felinized anti-NGF antibody ZTS-768) S428Y and S434H, feline IgG1a (antibody)
heavy: B1 heavy with A434Y, S440H
light: B1 light
notes: also called mAb3 ID No. 114
B3: mAb3 (felinized anti-NGF antibody ZTS-768) S428L and S434P, feline IgG1a (antibody)
heavy: B1 heavy with A434L, S440P
light: B1 light
B4: mAb3 (felinized anti-NGF antibody ZTS-768) S428Y, feline IgG1a (antibody)
heavy: B1 heavy with A434Y
light: B1 light
B5: mAb3 (felinized anti-NGF antibody ZTS-768) S428M, feline IgG1a (antibody)
heavy: B1 heavy with A434M
light: B1 light
notes: also called mAb3 ID No. 99
B6: mAb3 (felinized anti-NGF antibody ZTS-768) S428I, feline IgG1a (antibody)
heavy: B1 heavy with A434I
light: B1 light
notes: also called mAb3 ID No. 96
B7: mAb3 (felinized anti-NGF antibody ZTS-768) S428Y and S434L, feline IgG1a (antibody)
heavy: B1 heavy with A434Y, S440L
light: B1 light
notes: also called mAb3 ID No. 116
B8: mAb3 (felinized anti-NGF antibody ZTS-768) S428N, feline IgG1a (antibody)
heavy: B1 heavy with A434N
light: B1 light
notes: also called mAb3 ID No. 100
B9: mAb3 (felinized anti-NGF antibody ZTS-768) S428L and S434F, feline IgG1a (antibody)
heavy: B1 heavy with A434L, S440F
light: B1 light
notes: also called mAb3 ID No. 110
B10: mAb3 (felinized anti-NGF antibody ZTS-768) S428Y and S434W, feline IgG1a (antibody)
heavy: B1 heavy with A434Y, S440W
light: B1 light
B11: mAb3 (felinized anti-NGF antibody ZTS-768) S428Y and S434P, feline IgG1a (antibody)
heavy: B1 heavy with A434Y, S440P
light: B1 light
B12: mAb3 (felinized anti-NGF antibody ZTS-768) S428C, feline IgG1a (antibody)
heavy: B1 heavy with A434C
light: B1 light
notes: also called mAb3 ID No. 90
B13: mAb3 (felinized anti-NGF antibody ZTS-768) S428L and S434W, feline IgG1a (antibody)
heavy: B1 heavy with A434L, S440W
light: B1 light
notes: also called mAb3 ID No. 113
B14: mAb3 (felinized anti-NGF antibody ZTS-768) S428K, feline IgG1a (antibody)
heavy: B1 heavy with A434K
light: B1 light
notes: also called mAb3 ID No. 97
B15: mAb3 (felinized anti-NGF antibody ZTS-768) S428G, feline IgG1a (antibody)
heavy: B1 heavy with A434G
light: B1 light
notes: also called mAb3 ID No. 94
B16: mAb3 (felinized anti-NGF antibody ZTS-768) S428T, feline IgG1a (antibody)
heavy: B1 heavy with A434T
light: B1 light
notes: also called mAb3 ID No. 104
B17: mAb3 (felinized anti-NGF antibody ZTS-768) S428F, feline IgG1a (antibody)
heavy: B1 heavy with A434F
light: B1 light
notes: also called mAb3 ID No. 93
B18: mAb3 (felinized anti-NGF antibody ZTS-768) S428L and S434L, feline IgG1a (antibody)
heavy: B1 heavy with A434L, S440L
light: B1 light
notes: also called mAb3 ID No. 111
B19: mAb3 (felinized anti-NGF antibody ZTS-768) S428R, feline IgG1a (antibody)
heavy: B1 heavy with A434R
light: B1 light
notes: also called mAb3 ID No. 103
B20: mAb3 (felinized anti-NGF antibody ZTS-768) S428L, feline IgG1a (antibody)
heavy: B1 heavy with A434L
light: B1 light
notes: also called mAb3 ID No. 98
B21: mAb3 (felinized anti-NGF antibody ZTS-768) S428W, feline IgG1a (antibody)
heavy: B1 heavy with A434W
light: B1 light
B22: mAb3 (felinized anti-NGF antibody ZTS-768) S428H, feline IgG1a (antibody)
heavy: B1 heavy with A434H
light: B1 light
notes: also called mAb3 ID No. 95
B23: mAb3 (felinized anti-NGF antibody ZTS-768) S428E, feline IgG1a (antibody)
heavy: B1 heavy with A434E
light: B1 light
notes: also called mAb3 ID No. 92
B24: mAb3 (felinized anti-NGF antibody ZTS-768) S428V, feline IgG1a (antibody)
heavy: B1 heavy with A434V
light: B1 light
notes: also called mAb3 ID No. 105
B25: mAb3 (felinized anti-NGF antibody ZTS-768) S428L and S434H, feline IgG1a (antibody)
heavy: B1 heavy with A434L, S440H
light: B1 light
notes: also called mAb3 ID No. 109
B26: mAb3 (felinized anti-NGF antibody ZTS-768) S428Y and S434F, feline IgG1a (antibody)
heavy: B1 heavy with A434Y, S440F
light: B1 light
notes: also called mAb3 ID No. 115
B27: mAb3 (felinized anti-NGF antibody ZTS-768) S428P, feline IgG1a (antibody)
heavy: B1 heavy with A434P
light: B1 light
notes: also called mAb3 ID No. 101
B28: mAb3 (felinized anti-NGF antibody ZTS-768) S428Q, feline IgG1a (antibody)
heavy: B1 heavy with A434Q
light: B1 light
B29: mAb3 (felinized anti-NGF antibody ZTS-768) S428D, feline IgG1a (antibody)
heavy: B1 heavy with A434D
light: B1 light
notes: also called mAb3 ID No. 91
B30: mAb4 (felinized anti-IL31 antibody ZTS-5864) S428A, feline IgG1a (antibody)
heavy: DVQLVESGGDLVKPGGSLRLTCVASGFTFSDYAMSWVRQAPGKGLQWVAGIDSVGSGTSYADSVKGRFTISRDNAKNTLYLQMNSLKTEDTATYYCASGFPGSFEHWGQGTLVTVSSASTTAPSVFPLAPSCGTTSGATVALACLVLGYFPEPVTVSWNSGALTSGVHTFPAVLQASGLYSLSSMVTVPSSRWLSDTFTCNVAHPPSNTKVDKTVRKTDHPPGPKPCDCPKCPPPEMLGGPSIFIFPPKPKDTLSISRTPEVTCLVVDLGPDDSDVQITWFVDNTQVYTAKTSPREEQFNSTYRVVSVLPILHQDWLKGKEFKCKVNSKSLPSPIERTISKAKGQPHEPQVYVLPPAQEELSRNKVSVTCLIKSFHPPDIAVEWEITGQPEPENNYRTTPPQLDSDGTYFVYSKLSVDRSHWQRGNTYTCSVAHEALHSHHTQKSLTQSPGK
VL: QSVLTQPSSVSGTLGQRITISCTGSSSNIGSGYVGWYQQVPGMGPKTVIYYNSDRPSGVPDRFSGSKSGSSGTLTITGLQAEDEADYYCSVYDRTFNAVFGGGT
notes: also called mAb4 ID No. 2
B31: mAb4 (felinized anti-IL31 antibody ZTS-5864) S428L and S434H, feline IgG1a (antibody)
heavy: B30 heavy with A433L, S439H
VL: B30 VL
notes: also called mAb4 ID No. 22
B32: mAb4 (felinized anti-IL31 antibody ZTS-5864) S428D, feline IgG1a (antibody)
heavy: B30 heavy with A433D
VL: B30 VL
notes: also called mAb4 ID No. 4
B33: mAb4 (felinized anti-IL31 antibody ZTS-5864) S428L and S434P, feline IgG1a (antibody)
heavy: B30 heavy with A433L, S439P
VL: B30 VL
notes: also called mAb4 ID No. 25
B34: mAb4 (felinized anti-IL31 antibody ZTS-5864) S428L and S434W, feline IgG1a (antibody)
heavy: B30 heavy with A433L, S439W
VL: B30 VL
notes: also called mAb4 ID No. 26
B35: mAb4 (felinized anti-IL31 antibody ZTS-5864) S428C, feline IgG1a (antibody)
heavy: B30 heavy with A433C
VL: B30 VL
notes: also called mAb4 ID No. 3
B36: mAb4 (felinized anti-IL31 antibody ZTS-5864) S428L and S434L, feline IgG1a (antibody)
heavy: B30 heavy with A433L, S439L
VL: B30 VL
notes: also called mAb4 ID No. 24
B37: mAb4 (felinized anti-IL31 antibody ZTS-5864) S428L and S434F, feline IgG1a (antibody)
heavy: B30 heavy with A433L, S439F
VL: B30 VL
notes: also called mAb4 ID No. 23

target: T1, Feline FcRn (complex of FcRn-α subunit and β-microglobulin, C-terminal His tag) (feline, UniProt A0ABI7ZNY9 23-296; Q5MGS7 21-118); assay: SPR Biacore, biotin-FcRn on SA chip, pH 6
T1 construct: treated here as one molecule
Procedure: Feline FcRn was isolated, prepared and mutant Fc IgGs were assayed against feline FcRn according to Strietzel et. al., discussed above. Standard PCR was used to amplify feline FcRn-α subunit and β-microglobulin. FcRn-α subunit and β-microglobulin were co-transfected into HEK 293 cells and the FcRn complex was purified by IMAC affinity purification via the c-terminal His tag. FcRn complex was biotin labeled through BirA enzymatic biotinylatoin reaction. KD's were measured by Biacore T200 (GE Healthcare, Pittsburgh, PA, USA) or Biacore 8K (Cytiva, Marlborough, MA, USA) using a SA sensor chip.
FcRn was captured on the surface of the sensor using a modified SA capture method. 10 mM MES; 150 mM NaCl; 0.005% Tween20; 0.5 mg/mL BSA; pH6 was used as capture, method running buffer and titrations. 1×HBS-P, 0.5 mg/mL BSA; pH7.4 was also used for method running buffer and titrations. Fc mutant IgGs were flowed over receptor surfaces and affinity was determined using T200 evaluation software or Biacore Insight Evaluation software. Blank runs containing buffer only were subtracted out from all runs. Flow cells were regenerated using 50 mM Tris pH8 or pH9. Runs were performed at 15° C.

| Kd [nM] | Binder |
| --- | --- |
| 22.3 | B1 |
| 3.25 | B2 |
| 18.8 | B3 |
| 58.2 | B4 |
| 6.89 | B5 |
| 22.2 | B6 |
| 34.3 | B7 |
| 11.2 | B8 |
| 3.38 | B9 |
| 0.812 | B10 |
| 16.6 | B11 |
| 26.2 | B12 |
| 23.6 | B13 |
| 22.2 | B14 |
| 87.7 | B15 |
| 25.8 | B16 |
| 6.75 | B17 |
| 0.312 | B18 |
| 27.3 | B19 |

| Kd [nM] | Binder |
| --- | --- |
| 15.4 | B20 |
| 18.5 | B21 |
| 53.3 | B22 |
| 57.4 | B23 |
| 17.1 | B24 |
| 13.1 | B25 |
| 2.94 | B26 |
| 17.8 | B27 |
| 71.3 | B28 |
| 56.8 | B29 |
| 66.4 | B30 |
| 17.7 | B31 |
| 190 | B32 |
| 2250 | B33 |
| 17.2 | B34 |
| 29 | B35 |
| 97.2 | B36 |
| 84.7 | B37 |
